From patent US20100113575A1

What was measured:
[1] = molecular target: autoprocessed, secreted PCSK9-152FLAG-V5/His (human) (UniProt Q8NBP7); experiment: TR-FRET on cell media, 50,000 cells per well
[2] = molecular target: LDLR (UniProt P01130); experiment: cell-based or functional assay

Q: How did the window of the TR-FRET ratio against PCSK9-152FLAG-V5/His-S386A [1] turn out when Eu+3-labeled anti-FLAG M1 antibody was run?
A: 3 fold

Q: For “purified nonprocessed D186A PCSK9 (from UniProt Q8NBP7 31-692) (enzyme)”, which activity in PCSK9-dependent LDL uptake against processed PCSK9 [2] is on record?
A: 20 fold

Q: Which results are given for “purified processed D186A PCSK9 (with retained pro domain) (from UniProt A8T644 31-152; Q8NBP7 153-692) (enzyme)”?
A: EC50, inhibition of diI-LDL uptake in HEK293 cells [2]: 189 nM; fold decrease in potency in the PCSK9-dependent LDL-uptake assay against WT PCSK9 [2]: 4 fold
